Laboratory results as given in the nanobody polyreactivity screen of Harvey et al. (2022).

Experiment: yeast display, Sf9 membrane polyspecificity reagent, FACS + sequencing; frameworks hold sequencing errors
Summary of the method: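 A nanobody's polyreactivity label depends on the gate it was sorted from. Yeast display cells were stained with 10% biotinylated, detergent-solubilized Sf9 membrane reagent for 1 hour at 4 °C, enriched on streptavidin microbeads and sorted by FACS. The low and high (top ~1%) gates were set on anti-HA fluorescence for expression and streptavidin fluorescence for reagent binding.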

Sequence | polyreactivity (PSR sort gate)
QVQLVESGGGLVQAGGSLRLSCAASGRIFYYYDMGWYRQAPGNERELVAGINDDSSTYYADSVKGRFTISRDNAKNTVYLQMNSLKPEDTAVYYCNAGPSWYPCWYYYWGQGTQVTVSS | low polyreactivity
QVQLVESGGGLVQEGGSLRLICAASGRIFGDYGMGWYRQAPGKERELVAAITDRGGTTYYADSVKGRFTISRDNAKNTVYLQMNSLNPEDTAVYYCNARQSDIFDYDYWGQGTQVTVSS | low polyreactivity
QVQLVESGGGLVQAGGSLRLSCAASGSIFGSYVMGGYRQAPGKERELVATITNGGSTYYADSVKGRFTISRDNAKNTVYLQMNSLKPEDTAVYYCAADGRGDLYVWPGIGGDYWGQGTQVTVSS | low polyreactivity
QVQLVESGGGLVQAGGSLRLRCAASGIIFDGNVMGWYSQAPGKEREFVASISISGGSTSYADSVKGRFTISRDNAKNTVYLQMNSLNPEDTAVYYCNTDVGYGRVWRWRYHGDYWGQGTQVTVSS | low polyreactivity
QVQLVESGGGLVQAGGSLRLSCASTGFTFYRYAMGWYRQARGKERELVAAITRSGSRTYYADSVKGRFTISRDNAKNTVYLQMNSLKPEDTAVYYCNAPRPASTDRRRYNYWGQGTQVTVSS | high polyreactivity
QVQLVESGGGLVQAGGSLRLSCAASGSTFSQNALGWYRQAPGKDRELVAAITSGGITYYADSVKGRFTMSRDNAKNTVYLQMNSLKPEDTAVYYCAADFWPSGRGVAFDYWGQGTQVTVSS | low polyreactivity
QVQLVESGGGLVQAGGSLRLSCAASGSTFFHYAMGWYRQAPGKERELVAAISGSGGSTYYADSVKGRFTISRDNAKNTVYLQMNSLKPEDTAVYYCNARVWHYTSRTTFDYWGQGTQVTVSS | low polyreactivity
QVQLVESGGGLVQAGGSLRLSCASSGRIFYPNAMGWYRQAPGIERELVAAISSRGGSTYYADSVKGRFTISRDNAKNTVYLQMNSLKPEDTAVYYCNRVYYTIGYDYWGQGTQVSVSS | high polyreactivity
QVQLVESGGGLVQAGGSLRLSCAASGIIFRLNTMGWYRPAPGTERELVAAITSGGSTHYADSVKGRFTISRDNAKNTVYLQRISLNPEDTAVYYCAAGHRAKYWAWHFYYPGDYWGQGTQVTVSS | low polyreactivity
QVQLVESGGGLVQAGGSLRLSCAASGSPFPYVMVWYRQAPGKERELVAAISQRTGSTYYADSVKGRFTISRDNAKNTVYLQMNSLKPEDTAVYYCAKPGYLRPSRYDYWGQGTQVTVSS | high polyreactivity
QGQLEESCGGLVQAGARLRISCEASGRTFRFYTMGGYRPAPGKEMELVAAISSNTGTTYADSVKGRFTISRDNAKNTVYLQMNSLKQEDTAVFFCAARVRRQYYNRPYYYWGQGTQVTVSS | high polyreactivity
QVQLVESVGGLVQAGGSLRLRCAASGSTFYKNAMGRYRQAPGIERELVAGISRRGGRTYYADSVKGRFTISRDNAKNTVYLQMNSLKPEDTAVFYCNTGHEVDEYDYWGQGTQVTVSS | low polyreactivity
QVQLVESGGGLVQAGGSLRLSCAASGRTIRHNAMGWYRQAPGKERELVAAISRSGGSTYYADSVKGRFTISRDNAKNTVYLQMNSLKREDTAVYYCAAGYHGYDWGQGTQVTVSS | high polyreactivity
QVQLVESGGGLVQAGGSLRLSCAASGFTVFYNAMGWYRQAPGKERELVAAITARGGGTYYADSVKGRFTISRDNAKNTVYLQMNSLKPEDTAVYYCAADSFIPPYDHWGQGTQVTVSS | low polyreactivity
QVQLVESGGGLVQAGGSLRLSCAASGSTFRVNAMAWYRHAPGKERELVADITNGGSTYYADSVKGRFTISRDNAKNTVYLQMNSLKPEDTAVYYCNARPSYLRFKWYSYDYWGQGTQVTVSS | high polyreactivity
QVQLVESGGGLVQAGGSLRLSCAASGNNFLLYAMVWYRQAPGKEREFVAAITWIAGSTYYADSVKGRFTISRDNAKNTVYLQMNSLKPEDTAVYYCAADSYWYDMDYWGQGTQVTVSS | high polyreactivity
QVQLVESGGGLVQAGGSLRLSCAASGSIYLYNAMGWYRQAPGKERELVAVINGRGGTYYADSVKGRFTISRDNAKNNVYLQMNSLKPEDTAVYYCATGYAPSAWYDSVRFEDRDSWGQGTQVTVSS | low polyreactivity
QVQLVESGGGLVQAGGSLRLSCAASGSTFSHYAMGWYRQAPGKERELVATITGTGVRTYYADSVKGRFTISRDNAKNTVYLQMNSLKPEDTAVYYCAVPPSKRGAQAQPWMDYWGQGTQVTVSS | low polyreactivity
QVQLVESGGGLVQAGGSLRLSCAASGSIFAYYAMGRNRQAPGKERELVAAITFSGVSTYYADSVKGRFTISRDNAKNTVYLQMNILKPEDTAVYYCAADPYQNYWWWYDYWGQGTQVTVSS | low polyreactivity
QVQLVESGVRLVQAGGSLRLSCAASGSIFAKYTMGWYRPAPGKERELVAAITRSGTSTRYADSVKGRFTISRDNAKNTVYLQLNSLKPEDTAVYYCAASLYSWGQGTQVTVSS | high polyreactivity
QVQLVESGGGLVQAGGSLRLSCAASGSTFSYYAMGWYRQAPVKERELVAAITSGGGRTYYADSVKGRFTISRDNAKNTVYLQMNSLKPEDTAVYYCNALSTLYNGYDYWGQGTQVTVSS | high polyreactivity
QVQLVESGGGLVQAGGSLRLICAASGRTFCAYAMGWYRQAPGKERELVAAITTSGGSTNYADSVKGRFTISRDTAKYTVYLEMKSLKPEETAVYYCNADPTYHVVNGVGFWGQGTQVTVSS | low polyreactivity

Sequence | polyreactivity (PSR sort gate)
QVQLVESGGGLVQAGGSLRLSCAATGRIFYGYTMGWYRQPPGKERELVAAINFNAGRTYYADSVKGRFTISRDNAKNTVYLQMNSLKPEDTAVYYCAAEGRFGRKYGYWGQGTQVTVSS | low polyreactivity
QVQLVESGGGLVQAGGSLRLSCAASGSTFYLYAMGWYRQAPGKERELVARISSSGGRTYYADSVKGRFTISRDNAKNTVYLQMNSLKPEDTAVYYCAASSFTSSYNYWGQGTQVTVSS | high polyreactivity
QVQLVESGGGLVQAGGSLRLSCAASGRIFHGYAMGWYRQAPGKERELVGAINSSGGSTYYADSVKGRFTISRDNAKNTVYLQMNSLKPQDTAVYYCAADWVVSGNNPTVDTYFWYEYWGQGTQVTVSS | low polyreactivity
QVQLVESGGGLVQAGGSLRLSCAASGRTFKYYAMGWYRQAPGKERELVAAISLSSGRTYYADSVKGRFTISRDIAKNTVYLQMNSLKPEDTAVYYCARVTTGGYEYWGQGTQVTVSS | high polyreactivity
QVQLVESGGGLVQAGGSLRLSCAASGRIFSYNAMGWYRQAPGKERELVASISWSGGRTYYADSVKGRFTISRDNAKNTVYLQMNSLKPEDTAVYYCNAAYYTRVWGYDYWGQGTQVTVSS | high polyreactivity
QVQLVESGGGLLQAGGSLRLSCAASGLTFVGYDMGWYRQAPGKERELVAAISTGGGSTYYADSVKGRFTISRDNAMNTVYLKMNSLKPEDTAVYYCNKLRLHGDRYDYWGQGTQVTVSS | high polyreactivity
QVHLVESGGGLVQAGGSLRLSFAADGSSFVRYAMGWYRQAPGKEREFVAAISRTGGSTYYADSVKGRFTLSRDNAKNTVYLQMNSLKQEVTAVFYCDARYIRGYDYWGQGTKVTVSS | high polyreactivity
QVQLVESGGGLVQAGGSLRLSCAASGFIFLYYAMGWYRQAPGKERELVAAISNGGSTYYADSVKGRFTISRDNAKNTVYLQMNSLKPEDTAVYYCAARYGYRYTLKYGYWGQGTQVTVSS | high polyreactivity
QVQLVESGGGLVQAGGSLRLSCAASGLTFDVYTMGWYRQAPGKERELVAGITSGGSTDYADSVKGRFTISRDNAKNTVYLQMNSLKPEDTAVYYCNKPFPYYPDGPNGYDYWGQGTQVTVSS | low polyreactivity
QVQLVESGGGLVQAGGSLRLSCAASGFIFYAYAMGWYRQAPGKERELVPAISRRGGSTYYADSVKGRFTISRDNAKNTVYLQMNSLKPEDTAVYYCARDWTLGRSGPKYGYWGQGTQVTVSS | high polyreactivity
QVQLVESGGGLVQAGGSHRLSCAASGLIIGYYDMGWYRQAPGQERELVAAITQSSGSTYYADSVKGRFTISRDNAKNTVYLQMNRLKREDTAVYYCARRKWKFADNYKLDYWGQGTQVTVSS | low polyreactivity
QVQLVESGGGLVQAGGSLRLSCAASGFIFDSYAMGWYRQAPGKERELVAAISYSAGSTSYADSVKGRFTISRDNAKNTVYLQMNSLKPEDTAVYYCNARYYPLYSNSYYSWGQGTQVTVSS | low polyreactivity
VQLVESGGGLVQAGGSLRLSCAASGRIFSNNAMGWYRQAPGKEREFVAAITTSAGRTYYADSVKGRFTISRDNAKNTVYLQMNSLKPEDTAVYYCAAEPRQYWEYNYWGQGTQVTVSS | high polyreactivity
QVQLVESGGGLVQAGGSRRLSCAASGSNFRNNAIGWYRQAPGKERELVAVISRRSGNTYYADSVKGRFTISRDNGKKTVYLPMHSLKPEDTAVYYCASDYCKSSIRGDYWGQGTQVTVSS | low polyreactivity
QVQLVESGGGLVQAGGSLRLSCAASGFIFYQYAKGWYRQAPGKERELVATISFRGGRTYYADSVKGRFTITRDTAKNTVYLQMNSLKPDETAVYYCNAKRVSSRFYKWDYYWGQGTQVTVSS | high polyreactivity
QVQLVESGGGLVQAGGSLRLSCAASGSIFKVYAMGWYRQAPGKERELVAAISRGGSTYADSVKGRFTISRDNAKNTVYLQMISLKPEDTAVYYCNATVGRIYVTRYDYWGQGTQVTVSS | high polyreactivity
QVQLVESGGGLVQAGGSLRLSCAASGITYYRYTMGWYRQAPGKDRELVASINWSGTRTYYADSVKGRFTISRDNAKNTVYLLMNSLKPEDTAVYYCAAKGAQGTSRRWFDYWGQGTQVTVSS | high polyreactivity
QVQLVESGGGLVQAGGSLRLSCAASGRIFYPYAMGWYRQAPGKERELVAAITTSSARTYYADSVKGRFTISRDNAKNTVYLQMNSLKPEDTAVYYCAVKRGYYTTYRGYGYWGQGTQVTVSS | high polyreactivity
QVQLVESGGGLVQAGGSLRLSCAASGRTISKNAMGWYRQAPGKERELVAAISGSGGSTYYADSVKGRFTISRDNAKNTVYLQMNSLKPEDTAVYYCADRYTVSRSGYWGQGTQVTVSS | high polyreactivity
QVQLVESGGGLVQAGGSLRLSCAAYGNAMGWYRQAPGKERELVASINRSGGRTYYADSVKGRFTISRDNAKNTVYLQMNSLKPEDTAVYYCAARPHYDSDYWGQGTQVTVSS | low polyreactivity
QVHIVETGGGLFQAGGSLRLSSASSGRIFPVYAMGWYRQAPGKERELVAAISRRGGSSYYEDSVKGRFTISRDNAKNTVYLHMNCLKTEDTEVNYFAATAYYYWWWYGGDMDYWGQGTQVSVSS | high polyreactivity
